{
  "source": "paper doi:10.1101/2021.06.14.21258871",
  "molecular_target": "recombinant stabilized complete spike protein (SARS-CoV-2), pre-fusion stabilised (SARS-CoV-2) (UniProt P0DTC2)",
  "assay": "affinity purification with mass spectrometry",
  "data": [
    {"substance": "human serum albumin (from UniProt P02768 25-609) (natural protein)", "values": [
      {"measurement": "mean MALDI-ToF peak intensity of eluted HSA", "result": 1920, "unit": "AU"},
      {"measurement": "percent of samples in which HSA was detected in the eluate", "result": 72, "unit": "%"}
    ]}
  ]
}
